Source: the DeepSol protein solubility set

assay: soluble on expression in E. coli; label from the status in PepcDB or PDB records

Soluble on expression in E. coli, soluble:
MSLRQLLQKRAMQSPNLEALVGGKKRYSFQQYNERVNQLAHYLLHNGVQRGDRIGILCKNNHPFPSVMMASLKIGAVFIPLNHQLTVYELETIVKEAKLKVLVIDEEFSEVLLNVDAVKEIPYVIQTTKEGFGSFELELQKQPTTEPNVEVHEEDDAIYLFTSGTTGQAKACVIGHKNLHHYFAEIAGQREIPAGERFLSVHPLFHMSGVLSILNCIYHGVTMIFLADSNPAIIWDKIEEEKITTMLAFPAVYSYMLDELNKKERNISTFKVAQSGGTKVPETLIQKYMEKGIYMVQGYGSTEGWVVTSWHPMMGKEKMSSVGKTLKNVEVKIVHPETGHELTTNEVGEIHVKSPYMFKGYWNNEKATKKVVKDNWFNMGDAGMIDDDGFLHIMGRYKDVIIRGGDNVYPDQVEDVIHEIQGVLEVAVVGVPDDFWGEVPRAYIVKDGETTLTEESIIQYCKEKLASYKIPEVVFIDELPKNALGKVLKRELRDVVLVKEGHHHHHH
MSLRTNEHNFHNIEEEIKHVAVYLRLSRGEDESELDNHKTRLLNRCELNNWSYELYKEIGSGSTIDDRPVMQKLLTDVEKNLYDAVLVVDLDRLSRGNGTDNDRILYSMKVSETLIVVESPYQVLDANNESDEEIILFKGFFARFEFKQINKRMREGKKLAQSRGQWVNSVTPYGYIVNKTTKKLTPSEEEAKVVIMIKDFFFEGKSTSDIAWELNKRKIKPRRATEWRSSSIANILQNEVYVGNIVYNKSVGNKKPSKSKTRVTTPYRRLPEEEWRRVYNAHQPLYSKEEFDRIKQYFECNVKSHKGSEGHHHHHH
MSLSAFDAFPLGQPAFVTNILDRAAHLRRDDEKLFALEQKPSSRAYVVHRDSLLVKREGENVRALLGIDEALKCGANPGTIFLGLRDGAAVFGMGLSQAAAEKLVGREDYSLTELRGMAMQGAIPPDELSAIAMAKSMVSWHQRHGYCANCGTRSAMKEGGWKRDCPACKAEHFPRTDPVVIMLVASGEKCLLGRQKQFPPGMFSCLAGFVEAAETIEDAVRREILEESGIRCTDVQYYMTQPWPYPSSLMIGCSARALNEDIVVDHSELEDARWFTREEAALMLTRTHPDGLAGPHPFAIAHHLLGRWVHDKSGEGHHHHHH
MSLSATNTNLHDLLARRIPGHALEQPFYTSPEIYQQDLEHIFYREWLYAIPACQLVKPGSYATLRIGAYNIVIVKGRDGEIRAFHNSCRHRSSIVCKAREGQVAKLVCPYHQWTYDLDGKLIWANSMGPDFDPTQHGLRSVALRNLKGLIYICLADTPPDFEAFARAAEPYLGVHDLQDAKVAYSSSIIEKGNWKLVWENNRECYHCSGNHPALCRSFPLDPEVAGVSADGSISQRIQDHFDACAAAGAPAQFLLGGDGQFRLARMPLQETAVSYTMDGKAAVARQLGRVAKPDAGSLLVFHYPSTWNHFLPDHSLTFRVTPISPTETEVTTTWLVHKDAVEGVDYDLQHLTEVWIATNDEDREIVETNQEGIFSPAYIPGPYSPDWESGVIQFIDWYAAWMERSLAPSRMAAEEGHHHHHH
MSLSDAAISCSWKPFFRELATRLLDYEDRQPELLAALRDASISINHDEGEPLREVDPFTFFSLVLKHTSDATALPLFARVGAALGVQAPSPTDLIGVPWSNPMNAWFFAYRSQRQPGDVPLLWRLARQAVAGILDAQTFEDALKIRKVALPKLTQGLFWLNPERFLALNAVNVPYLQARGLQAAGQVQTLAEYETVLEAAHKLNPDFAALSHRAWLNSQTAALEGNHFPFARYQADAQEFAGDKVKGNLVLDRRYAPLLLDLMAGEWETLKPSRSPYSGREQLAVKVALGGGVKTDGGAFARALLFADDSGFEYVPFSAGLTLEAGLPDGRGDGPRQALQEPARQHTLLTALNAPLPAGLEATLTLNTDFGALFLLPLGPGREAEAAQQLQQYMSGVGRSRRLRVGLSLLPEHLESDKFPELLDAALTYLDALVDLLDGLMRPSEETSTEEIGVPGTRPVAPTPAAFVPVPGVPLNQILYGPPGTGKTYRVVDEALSVLDPAFLSAHPGSEGRAARKARYDELAAQGQISFVTFHQSFGYEDFIEGIKPVMSGGALSYVLQDGVFLEAVRSAGGALAPAAPEAGPSTETQPLVRPDAQVWRMYIDGTAPVSRIRDLSLGRGELRMGSYGKPPRDLTQAGVEDLSGRQLLFKESVRVGDLMLLATAADRIGAVGVVTGDYRFDPHSDPTFATDYAHTRSVKWLAQDLNVGATETLGKSFAPPTLQRVADVTPAQVLQALGVSTAGGETAHAPTPRPHVLIIDEINRGNISKIFGELITLLESGKRTGAPEALTVTLPLSRRPLSVPQSLYVIGTMNTADRSLTLLDAALRRRFVFRPVWPQPEVLPVLDLGGTALDLRKFLHVINDRIERLLSREQVIGHAYLLGLPATLGGVSSALRERILPLLEEYFFEDWSKIREVLGDESKAEALQFIHRSGSGPELRYRLNPEAFENIEAFTGVYAGVSDQDFPFDEGHHHHHH
MSLSDFLILSDPDLDTLGITTDEIQTALEAAIRAQIRATVHVAPKSALLPGDGRYVMTTLATGNSPALTVVKSVMVSPDNPARGLPGTEGVLLVQDSETGQLRALMQAGWITRMRTAGLSALVARRLGDPAARVVAFIGAGAQARAHLAALCDLFPLQRAVILGRGAENIARLSAAARARGLQAEIADNPHQAIADADLVVSSVTLDHQMTPFLDARWLKPGAFASLTDTGLPWQPDGMAALDPLYIDDLAQEAANPRPMIDPARVGGDLAALLGEDLHSTNVNRHDPSRRAGFLFRGPAIADFALAALALHRAQSLGAGRDTAWPDATREGHHHHHH
MSLSDGDYDYLIKFLALGDSGVGKTSVLYQYTDGKFNSKFITTVGIDFREKRVVYRASGPDGATGRGQRIHLQLWDTAGQERFRSLTTAFFRDAMGFLLLFDLTNEQSFLNVRNWISQLQMHAYCENPDIVLCGNKSDLEDQRVVKEEEAIALAEKYGIPYFETSAANGTNISQAIEMLLDLIMKRMERCVDKSWIPEGVVRSNGHASTDQLSEEKEKGACGCEGHHHHHH
MSLSDGYHRSPSSRVPRIEGCQHTADASPSDATGPRRHAMTAHNREPVDYLAGEMPLHRYCAHHAAQTPERIALLWYGRTICWRELDQLSTRLAVQFQRLGVARGDRVALFLQNCPQAILAHLAAAKLGAIAVPCLPLSRQHELRDQLTDCGAKILIAAADLMPIVDAARPGTAIATVITTRYADLQPAQPACRKALAVPPELIAADAASAPAGRGQAGSGQFDLMQLLAEPVDVAERNAVAAIQVDLDEVALMIYTSGTTGRPKGAMLTHRNALYKTAVTVQMSGIHAADVLLAAAPLSHIAGMLMGMNLMLYAGAPTILLFRFDPLAVLQAIDRYCVTWWYSMTPMNLAVMAHPEAGQYRMASLVNNPCTSFGAPLTEAIADRWRAFAGPKCRIYEAAYGLSETHTCDTVTPPDAPRWGWHGKIVPQTEVRIVDPRTGTALPPGRSGEITIRSPGVFRGYWRRDEATRAALQDGFLRTGDIGQVSPDGYLQWQGRLKELIKVSGYSVFPEDVEALLSRHPAIRQVAVTPLPDPDKGEVVCAHVVRMSGTALTEAELIAWSRENMAPYKVPRRVRFHDALPATVTGKILRRLLREEAAVAEGHHHHHH
MSLSDKHIKQTVLNSNDNRISPSHVCDIFLPQNGLSERWKAFTRRRFVIAETGFGTGLSFLTACQQFTQFRQANPTATVKELHFISFEQHPLTKSDLIKATEKWPEFAHFSQQLHAHYPPAVSDCHRIVLDEGLITLDLWFGNITDSMPQVWTNDDGIVDAWFTDGFATESNAALLKSLTIINSIAILARENSTIHAITYHQGNQQDVLEQSLTEAGFDMTESHNEGHHHHHH
MSLSDKIRIGMTVSSTGSFVLASQSGVRGVEVWVDDVNRRGGIEIKGKKYPVELVKLDDRSDKQMVTRVYERLIVDEKVDLVFAPFGSTLTAAAGTVTERLGKYMMVWSAASDDLYKQGFKYMVSGTQMPVSAMLRAPMALAGKLGVKKAAILYSDEPFPAGLADGGRAQAAKNGIDVVLYEKYPKGQKDFSTLLQKAKAAGADALVPTSYEGDLISMTRQMKQLDINFPYTFMVYASTPQFQAIGADSNYIFSHTNYHPAINWKVNAGLTREQFGKAYDTLFPKAEFPPDFQTALAYGAGALTEEIIKKAGATDAAALKQASMDLSDKVTVMAGPYAIDETGKQLQMPFPVVQLLPGKGMVPVYPEDVAVEKAVYPAPAWNKAKGIITITTDPNSSSVDKLAAALEHHHHHH
